Sequences and labels used below:
B1: MTSP-1 Q38H/I41S/D60bT/F60eS/Y60gW/F97D/F99L/C122S/G151H/Q175L/Q192D (enzyme)
chain: VVGGTDADEGEWPWQVSLHALGHGHSCGASLISPNWLVSAAHCYIDTRGSRWSDPTQWTAFLGLHDQSQRSAPGVQERRLKRIISHPFFNDDTLDYDIALLELEKPAEYSSMVRPISLPDASHVFPAGKAIWVTGWGHTQYGGTHALILQKGEIRVINQTTCENLLPQLITPRMMCVGFLSGGVDSCDGDSGGPLSSVEADGRIFQAGVVSWGDGCAQRNKPGVYTRLPLFRDWIKENTGV
B2: MTSP-1 protease domain Q38H/I41A/D60bV/F60eR/Y60gW/F97D/F99L/C122S/G151N/Q175L/Q192D (enzyme)
chain: B1 chain with S26A, T47V, S50R, H145N
B3: MTSP-1 protease domain Q38H/I41S/D60bT/F60eS/Y60gW/D96I/F97N/T98G/F99L/C122S/G151N/Q175L/Q192D (enzyme)
chain: B1 chain with D91I, D92N, T93G, H145N
B4: MTSP-1 protease domain Q38H/I41S/D60bT/F60eS/Y60gW/F97D/F99L/C122S/G151N/Q175L/Q192D (enzyme)
chain: B1 chain with H145N
B5: MTSP-1 protease domain Q38H/I41S/D60bT/F60eS/Y60gW/F97D/T98P/F99L/C122S/G151H/Q175L/Q192E (enzyme)
chain: B1 chain with T93P, D188E
B6: MTSP-1 protease domain with C122S (enzyme)
chain: B1 chain with H23Q, S26I, T47D, S50F, W52Y, D92F, L94F, H145G, L169Q, D188Q
B7: MTSP-1 protease domain Q38H/I41A/D60bV/F60eR/Y60gW/D96I/F97N/T98G/F99L/C122S/G151H/Q175L/Q192D (enzyme)
chain: B1 chain with S26A, T47V, S50R, D91I, D92N, T93G
B8: MTSP-1 protease domain Q38H/I41A/D60bV/F60eR/Y60gW/F97D/F99L/C122S/G151H/Q175L/Q192D (enzyme)
chain: B1 chain with S26A, T47V, S50R
B9: MTSP-1 Q38H/I41S/D60bA/Y60gG/ins97aV/F97D/T98P/F99L/C122S/H143T/G151N/Q175L/Q192A (enzyme)
chain: VVGGTDADEGEWPWQVSLHALGHGHSCGASLISPNWLVSAAHCYIDARGFRGSDPTQWTAFLGLHDQSQRSAPGVQERRLKRIISHPFFNDDVPLDYDIALLELEKPAEYSSMVRPISLPDASHVFPAGKAIWVTGWGTTQYGGTNALILQKGEIRVINQTTCENLLPQLITPRMMCVGFLSGGVDSCAGDSGGPLSSVEADGRIFQAGVVSWGDGCAQRNKPGVYTRLPLFRDWIKENTGV
B10: MTSP-1 Q38H/I41S/D60bT/F60eH/Y60gF/ins97aV/F97D/T98P/F99L/C122S/H143R/G151N/Q175L/Q192S (enzyme)
chain: B9 chain with A47T, F50H, G52F, T139R, A189S
B11: MTSP-1 protease domain Q38H/I41S/D60bQ/F60eQ/F97D/ins97aV/T98P/F99L/C122S/H143Q/G151Q/Q175L/Q192G (enzyme)
chain: B9 chain with A47Q, F50Q, G52Y, T139Q, N146Q, A189G
B12: MTSP-1 protease domain Q38H/I41S/D60bT/F60eS/Y60gW/F97D/ins97aV/T98P/F99L/C122S/G151H/Q192E (enzyme)
chain: B9 chain with A47T, F50S, G52W, T139H, N146H, L170Q, A189E
B13: MTSP-1 protease domain I41S/D60bT/F60eS/Y60gW/ins97aV/F97D/T98P/F99L/C122S/G151H/Q175L/Q192E (enzyme)
chain: B9 chain with H23Q, A47T, F50S, G52W, T139H, N146H, A189E
B14: MTSP-1 Q38H/I41S/D60bS/F60eQ/Y60gF/ins97aV/F97D/T98P/F99L/C122S/H143R/G151N/Q175L/Q192T (enzyme)
chain: B9 chain with A47S, F50Q, G52F, T139R, A189T
B15: MTSP-1 Q38H/I41S/D60bF/F60eQ/Y60gF/ins97aV/F97D/T98P/F99L/C122S/H143A/G151N/Q175L/Q192A (enzyme)
chain: B9 chain with A47F, F50Q, G52F, T139A
B16: MTSP-1 Q38H/I41S/D60bF/F60eT/ins97aV/F97D/T98P/F99L/C122S/H143Q/G151N/Q175L/Q192G (enzyme)
chain: B9 chain with A47F, F50T, G52Y, T139Q, A189G
B17: MTSP-1 protease domain Q38H/I41S/D60bT/F60eT/ins97aV/F97D/T98P/F99L/C122S/H143Q/G151Q/Q175L/Q192G (enzyme)
chain: B9 chain with A47T, F50T, G52Y, T139Q, N146Q, A189G
B18: MTSP-1 protease domain Q38H/I41S/D60bS/F60eQ/ins97aV/F97D/T98P/F99L/C122S/H143A/G151N/Q175L/Q192G (enzyme)
chain: B9 chain with A47S, F50Q, G52Y, T139A, A189G
B19: MTSP-1 Q38H/I41A/D60bV/F60eR/Y60gW/D96Y/ins97aI/F97E/T98N/F99M/C122S/G151N/Q175L/Q192V (enzyme)
chain: VVGGTDADEGEWPWQVSLHALGHGHACGASLISPNWLVSAAHCYIDVRGRRWSDPTQWTAFLGLHDQSQRSAPGVQERRLKRIISHPFFNYEINMDYDIALLELEKPAEYSSMVRPISLPDASHVFPAGKAIWVTGWGHTQYGGTNALILQKGEIRVINQTTCENLLPQLITPRMMCVGFLSGGVDSCVGDSGGPLSSVEADGRIFQAGVVSWGDGCAQRNKPGVYTRLPLFRDWIKENTGV
B20: MTSP-1 protease domain Q38H/I41A/D60bV/F60eR/Y60gW/D96P/ins97aN/F97W/T98G/F99L/C122S/G151N/Q175L/Q192D (enzyme)
chain: B19 chain with Y91P, E92W, I93N, N94G, M95L, V189D
B21: MTSP-1 protease domain Q38H/I41S/D60bT/F60eS/Y60gW/ins97aV/F97D/T98P/F99L/C122S/G151H/Q175L (enzyme)
chain: B9 chain with A47T, F50S, G52W, T139H, N146H, A189Q
B22: MTSP-1 Q38H/I41A/D60bV/F60eR/Y60gW/D96S/ins97aR/F97A/T98S/F99L/C122S/G151N/Q175L/Q192T (enzyme)
chain: B19 chain with Y91S, E92A, I93R, N94S, M95L, V189T
B23: MTSP-1 protease domain Q38H/I41S/D60bT/F60eS/Y60gW/D96K/ins97aV/F97G/T98P/F99L/C122S/G151H/Q175L/Q192D (enzyme)
chain: B9 chain with A47T, F50S, G52W, D91K, D92G, T139H, N146H, A189D
B24: MTSP-1 protease domain Q38H/I41S/D60bT/F60eS/Y60gW/D96F/F97D/ins97aE/T98S/F99L/C122S/G151H/Q175L/Q192A (enzyme)
chain: B9 chain with A47T, F50S, G52W, D91F, V93E, P94S, T139H, N146H
B25: MTSP-1 protease domain Q38H/I41A/D60bV/F60eR/Y60gW/D96P/ins97aN/F97W/T98G/F99L/C122S/G151H/Q175L/Q192E (enzyme)
chain: B19 chain with Y91P, E92W, I93N, N94G, M95L, N146H, V189E
B26: MTSP-1 protease domain Q38H/I41S/D60bT/F60eS/Y60gW/ins97aV/T98P/F99L/C122S/G151H/Q175L/Q192E (enzyme)
chain: B9 chain with A47T, F50S, G52W, D92F, T139H, N146H, A189E
B27: MTSP-1 protease domain Q38H/D60bT/F60eS/Y60gW/ins97aV/F97D/T98P/F99L/C122S/G151H/Q175L/Q192E (enzyme)
chain: B9 chain with S26I, A47T, F50S, G52W, T139H, N146H, A189E
B28: MTSP-1 Q38H/I41A/D60bV/F60eR/Y60gW/D96P/ins97aN/F97W/T98G/F99L/C122S/G151N/Q175L/Q192E (enzyme)
chain: B19 chain with Y91P, E92W, I93N, N94G, M95L, V189E
B29: MTSP-1 protease domain Q38H/I41A/D60bV/F60eR/Y60gW/D96P/ins97aN/F97W/T98G/F99L/C122S/G151H/Q175L/Q192D (enzyme)
chain: B19 chain with Y91P, E92W, I93N, N94G, M95L, N146H, V189D
B30: MTSP-1 protease domain Q38H/I41S/D60bT/F60eS/Y60gW/D96Y/ins97aV/F97E/T98G/F99L/C122S/G151N/Q175L/Q192D (enzyme)
chain: B19 chain with A26S, V47T, R50S, I93V, N94G, M95L, V189D
B31: MTSP-1 protease domain Q38H/I41A/D60bV/F60eR/Y60gW/D96Q/F97E/ins97aD/T98S/F99L/C122S/G151N/Q175L/Q192R (enzyme)
chain: B19 chain with Y91Q, I93D, N94S, M95L, V189R
B32: MTSP-1 protease domain Q38H/I41A/D60bV/F60eR/Y60gW/D96I/ins97aN/F97Y/T98G/F99L/C122S/G151H/Q175L/Q192D (enzyme)
chain: B19 chain with Y91I, E92Y, I93N, N94G, M95L, N146H, V189D
B33: MTSP-1 protease domain Q38H/I41S/D60bT/F60eS/Y60gW/ins97aV/F97D/T98P/F99L/C122S/Q175L/Q192E (enzyme)
chain: B9 chain with A47T, F50S, G52W, T139H, N146G, A189E
B34: MTSP-1 protease domain Q38H/I41S/D60bT/F60eS/Y60gW/D96L/ins97aG/F97D/T98N/F99L/C122S/G151H/Q175L/Q192E (enzyme)
chain: B19 chain with A26S, V47T, R50S, Y91L, E92D, I93G, M95L, N146H, V189E
B35: MTSP-1 protease domain Q38H/I41S/F60eS/Y60gW/ins97aV/F97D/T98P/F99L/C122S/G151H/Q175L/Q192E (enzyme)
chain: B9 chain with A47D, F50S, G52W, T139H, N146H, A189E
B36: MTSP-1 protease domain Q38H/I41S/D60bT/F60eS/Y60gW/ins97aV/F97D/T98P/C122S/G151H/Q175L/Q192E (enzyme)
chain: B9 chain with A47T, F50S, G52W, L95F, T139H, N146H, A189E
B37: MTSP-1 Q38H/I41S/D60bT/F60eS/Y60gW/D96Y/ins97aV/F97E/T98G/F99L/C122S/G151H/Q175L/Q192D (enzyme)
chain: B19 chain with A26S, V47T, R50S, I93V, N94G, M95L, N146H, V189D
B38: MTSP-1 protease domain Q38H/I41S/D60bT/F60eS/Y60gW/ins97aV/F97D/F99L/C122S/G151H/Q175L/Q192E (enzyme)
chain: B9 chain with A47T, F50S, G52W, P94T, T139H, N146H, A189E

Numbering of substitutions follows the chain as printed. Numbers in names are those of the source.

Sequence of plasma purified human complement protein C3 (human) (P01024 23-667, chain 1 of 2): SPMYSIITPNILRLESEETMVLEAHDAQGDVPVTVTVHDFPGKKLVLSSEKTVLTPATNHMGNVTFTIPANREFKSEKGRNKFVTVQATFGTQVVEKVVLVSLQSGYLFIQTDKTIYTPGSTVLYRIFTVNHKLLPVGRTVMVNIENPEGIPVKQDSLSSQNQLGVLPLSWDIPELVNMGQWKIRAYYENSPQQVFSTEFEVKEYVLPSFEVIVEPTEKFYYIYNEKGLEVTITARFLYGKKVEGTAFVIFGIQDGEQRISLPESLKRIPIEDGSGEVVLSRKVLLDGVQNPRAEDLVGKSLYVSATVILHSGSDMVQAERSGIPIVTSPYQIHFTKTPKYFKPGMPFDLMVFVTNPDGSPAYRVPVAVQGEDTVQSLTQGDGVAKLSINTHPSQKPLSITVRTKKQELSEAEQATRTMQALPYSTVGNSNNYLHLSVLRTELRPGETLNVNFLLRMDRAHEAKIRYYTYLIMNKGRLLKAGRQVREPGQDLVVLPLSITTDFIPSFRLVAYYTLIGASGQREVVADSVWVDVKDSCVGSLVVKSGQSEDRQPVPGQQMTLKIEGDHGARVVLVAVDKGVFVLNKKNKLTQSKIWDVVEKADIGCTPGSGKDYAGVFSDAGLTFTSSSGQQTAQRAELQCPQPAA
Sequence of plasma purified human complement protein C3 (human) (P01024 672-1663, chain 2 of 2): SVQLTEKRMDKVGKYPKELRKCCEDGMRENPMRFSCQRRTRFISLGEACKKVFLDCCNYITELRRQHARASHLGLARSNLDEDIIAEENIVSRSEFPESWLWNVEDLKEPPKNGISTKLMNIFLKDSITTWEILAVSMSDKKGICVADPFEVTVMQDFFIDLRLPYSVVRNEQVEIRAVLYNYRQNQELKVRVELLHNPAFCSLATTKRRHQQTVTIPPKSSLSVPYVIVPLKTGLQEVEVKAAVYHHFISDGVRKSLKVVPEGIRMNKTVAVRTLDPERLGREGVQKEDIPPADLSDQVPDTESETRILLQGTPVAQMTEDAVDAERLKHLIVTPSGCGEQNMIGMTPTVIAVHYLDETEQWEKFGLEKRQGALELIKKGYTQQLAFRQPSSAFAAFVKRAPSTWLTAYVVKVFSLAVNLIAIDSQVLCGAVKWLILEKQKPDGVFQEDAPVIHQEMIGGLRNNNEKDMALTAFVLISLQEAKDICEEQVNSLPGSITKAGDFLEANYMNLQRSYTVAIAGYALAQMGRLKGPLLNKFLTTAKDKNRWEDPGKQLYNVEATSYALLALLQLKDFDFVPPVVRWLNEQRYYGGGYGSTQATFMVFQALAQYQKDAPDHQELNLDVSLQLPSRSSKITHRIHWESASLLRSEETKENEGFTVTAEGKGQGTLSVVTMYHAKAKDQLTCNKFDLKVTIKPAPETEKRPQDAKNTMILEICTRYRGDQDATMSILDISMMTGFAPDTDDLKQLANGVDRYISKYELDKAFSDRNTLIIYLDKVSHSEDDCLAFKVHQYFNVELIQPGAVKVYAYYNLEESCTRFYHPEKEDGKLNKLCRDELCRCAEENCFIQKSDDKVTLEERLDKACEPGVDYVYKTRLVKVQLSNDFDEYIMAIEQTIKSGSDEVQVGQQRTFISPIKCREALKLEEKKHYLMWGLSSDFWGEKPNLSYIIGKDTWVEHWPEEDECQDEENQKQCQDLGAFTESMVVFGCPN

The experiment concerns the target plasma purified human complement protein C3 (human) (UniProt P01024). Kind of experiment: cell-based or functional assay.
For B1, the EC50 of hC3 cleavage worked out at 5.53 nM.

The molecule B2 had an EC50 hC3 cleavage of 7.04 nM.

B3 came in with an EC50 hC3 cleavage of 3.04 nM.

Take B4: the EC50 hC3 cleavage was determined as 4.9 nM.

In turn, B5 gave an EC50 hC3 cleavage of 25.7 nM.

Molecule B6 gave an EC50 of hC3 cleavage of 13.9 nM.

The molecule B7 returned an EC50 hC3 cleavage of 2.52 nM.

Turning to B8, the EC50 hC3 cleavage was 3.72 nM.

For the molecule B9, the EC50 of hC3 cleavage came out at 4.22 nM.

Molecule B10 displayed an EC50 of hC3 cleavage of 21 nM.

For B11, the EC50 hC3 cleavage is 8.5 nM.

B12: the EC50 hC3 cleavage is 11.9 nM.

Molecule B13 displayed an EC50 hC3 cleavage of 6.33 nM.

For B14, the EC50 of hC3 cleavage came to 12.9 nM.

For B15, the EC50 of hC3 cleavage was 4.58 nM.

B16 gave an EC50 of hC3 cleavage of 3.07 nM.

B17: the EC50 hC3 cleavage turned out to be 6.69 nM.

Molecule B18 yielded an EC50 hC3 cleavage of 26.3 nM.

B19 had an EC50 of hC3 cleavage of 4.36 nM.

B20 showed an EC50 hC3 cleavage of 2.54 nM.

In turn, B21 had an EC50 hC3 cleavage of 1.31 nM.

Turning to B22, the EC50 of hC3 cleavage was found to be 2.07 nM.

For the molecule B23, the EC50 hC3 cleavage is 6.86 nM.

In turn, B24 returned an EC50 hC3 cleavage of 1.17 nM.

Molecule B25 came in with an EC50 hC3 cleavage of 1.11 nM.

In the case of B26, the EC50 hC3 cleavage was found to be 3.19 nM.

B27 had an EC50 hC3 cleavage of 66.7 nM.

Consider B28, for which the EC50 of hC3 cleavage came out at 1.51 nM.

Turning to B29, the EC50 hC3 cleavage came to 1.83 nM.

As for B30, the EC50 hC3 cleavage amounted to 4.13 nM.

On to B31, for which the EC50 hC3 cleavage was 4.6 nM.

With B32, the EC50 hC3 cleavage was determined as 1.57 nM.

The molecule B33 showed an EC50 hC3 cleavage of 4.86 nM.

On to B34, for which the EC50 hC3 cleavage was 1.59 nM.

Regarding B35, the EC50 hC3 cleavage was 3.83 nM.

For B36, the EC50 hC3 cleavage amounted to 11.5 nM.

With B37, the EC50 of hC3 cleavage is 4.62 nM.

For B38, the EC50 hC3 cleavage came to 7.82 nM.

Values taken from patent publication US20240018502A1.
